Experimental data from patent US5840283A, “Composition and method for treating diseased nails” (Sorenson Pharmaceutical, Inc., priority 1997, dated 1998).
Counter-ions that a name gives are not always drawn. Like-named read-outs stand apart in the source and are kept apart here.

Tests used:
[1] = format: in vitro ADME, human
Experimental: The efficacy of the nail-permeable medication means of the present invention was first evaluated by conducting comparative studies comprising application of a selected drug applied to a human nail in vitro as compared to the application of the nail-permeable medication means containing the same drug applied to a human nail in vitro. Specifically, these tests were conducted using diseased human toenails which were surgically removed from patients as a means of curing the disease condition of the nail.
Each nail was maintained in an environment simulating an in vivo condition. Each nail was maintained suspended on a plastic holder which allowed air to circulate about the nail. Each nail holder was retained in a separate enclosed system the temperature and humidity within which could be carefully regulated to simulate the human body. These artificial in vivo environments provided the diffusion cells in which the studies were conducted.
Human nails were prepared by cleaning and, in some instances, grinding the nail down to establish a more even thickness across the nail. The nails were then hydrated using distilled water to render the nails pliable for placement in the diffusion cell. […] A Teflon® donor compartment 16 was positioned over the nail 12 and the nail saddle 14 was joined to the donor compartment 16 by placement of a silicone sealant about the edges of the nail 12 and donor compartment 16. After the silicone cured, water leakage was tested and the nails were resealed if necessary. […] Attempts were made to use an appropriate size "O" ring 18 to form the seal between the nail saddle 14 and the donor compartment 16.
The cell 10 was used by adding solvent, usually de-ionized water, until the solvent came into contact with the nail. […] When semi-solid treatment formulations were used, excess product was removed from the nail by cleansing with cotton swabs after twenty-four hours and prior to application of another nail treatment or pre-treatment product. Pretreatment products (e.g., hydrating fluid, etc.) and treatment products (i.e., nail-permeable medication means) were changed or supplemented daily throughout the experimental period.
After addition of the pretreatment or treatment product, the opening of the donor cell 10 was occluded with silicone cement/sealant. The possibility of entrapped air at the interface of the receiver solvent and nail was checked daily, as well as at the beginning of the experiment. To control this problem, care was taken to be certain that no bubbles were present at the time solvents were added and the nail placed in the saddle. Bubbles may not be visible after the apparatus is fully assembled. Also, dissolved gases tend to separate into bubbles and rise to the nail/receiver interface during the process.
Ciclopirox olamine (6-Cyclohexyl 1-hydroxy 4-methyl 2(1H)-pyridone, 2-aminoethanol salt [Bertrafen]), an antimycotic drug, was used in the nail-permeable medication means of the invention for the purposes of testing and analysis. Three analytical methods are identified in the literature which appear to be acceptable means of determining drug diffusion rates. One method requires the use of radio-labeled drug, and another method utilizes LC (liquid chromatography) equipment. The third method, described by Belliardo, et al., in "Micro-liquid chromatography method for the determination of ciclopirox olamine after pre-column derivatization in topical formulations" Jr. Chromatography, Vol. 553 (1991), p. 41-5, was the method used here. However, because of lack of access to a micro-LC system, lesser concentrations of ciclopirox olamine (<1-2 μg/ml of diffusion fluid) were unquantifiable. Lesser concentrations were sometimes seen as small irregularities on the HPLC (high-pressure liquid chromatography) tracing, but the identity was not confirmed by computer. […]

[2] = pilot clinical study in patients with subungual onychomycosis; format: in vivo, human; settings: arm 3; patient's assessment of clinical results 1-5, 5 positive
From the text: Patients enrolled in the study were diagnosed with subungual onychomycosis from a positive culture of a target nail. The target nail was that nail most severely involved with symptoms of onychomycosis. […] Patients with a history of non-response to standard antimycotic treatments, or severe abnormalities or deformities of the assessed fingers or toes, were excluded.
The protocol called for an eleven month treatment period.
Patients visited their physicians on a monthly basis for evaluation. Clinical measurements and mycological cultures were taken on alternating visits. Adverse events were defined as any abnormal inflammation of the tissues surrounding the nail from the patient's pretreatment condition and were checked by their physician or reported as they occurred. Patient evaluations of clinical treatment were obtained by a survey of patients. Ease of application, convenience of application, and patient's assessments of the clinical results were rated by patients on a scale of 1 to 5 with 1 indicating visible effect and 5 being positive. In addition, patients were also asked to respond to treatment compliance by reporting the number of days per week which they applied their medication as prescribed.
Therefore, patients treated in arm 3 (antifungal only) of the study were used as the baseline upon which clinical and mycologic results were measured.

[3] = tested on: T. rubrum; settings: cited from earlier work
[4] = duration of papain activity after mixture with water; format: physicochemical; settings: certain activators present
From the text: The nail-permeable medication means also includes a medicament which is especially selected for treatment of a particular disease condition. The concentration of medicament in the nail-permeable means is sufficient to effectively control or eliminate the disease condition. […] It is notable in that respect that many medications have a water base, or have a water component in addition to certain activators (e.g. thiols and mercaptans which include cysteine and a chelating agent, such as EDTA [ethylenediaminetetraacetic acid]) which, when admixed with the enzymatic composition, may begin to degrade the enzyme and/or reduce its effectiveness. However, admixture of a water-based or water-containing medicament with a proteolytic enzyme will typically degrade the enzymatic component slowly enough that significant penetration of the nail still takes place and the medicament is successfully delivered to the disease site. Generally, papain and other proteolytic enzymes are effective for approximately twenty-four hours after mixture with water where certain activators are present. In the absence of such activators, papain may remain active for up to two years.

[5] = tested on: casein substrate; settings: cited from earlier work
[6] = cited from earlier work

**Q.** For Cc1cc(C2CCCCC2)n(O)c(=O)c1 [ciclopirox olamine, 6-Cyclohexyl 1-hydroxy 4-methyl 2(1H)-pyridone, 2-aminoethanol salt], which “amount of drug diffused compared with soaked nails” value [1] is on record?
**A.** less than when the nails were soaked with the papain-plus-activators

**Q.** And the “diffusion of drug through the nail, control without proteolytic enzyme component” value [1]?
**A.** no diffusion of drug through the nail

**Q.** What about the “drug diffusion for the seven-day period” value [1] of the same molecule?
**A.** 2 to 6 µg/mL

**Q.** And the “effect of increasing papain concentration on amount of drug diffused” value [1]?
**A.** did not increase the amount of drug diffused

**Q.** And the “effect of soaking time on amount of drug diffused” value [1]?
**A.** the amount of drug that diffused through the treated nails also increased

**Q.** What about the “ANALYSES (ciclopirox diffused through nail)” value ([1]; pH 10) of the same molecule?
**A.** 0 µg/mL

**Q.** What about the “Results (1-5)” value [2] of the same molecule?
**A.** 1

**Q.** What about the “minimum inhibitory concentration (MIC)” value [3] of the same molecule?
**A.** 10 µg/mL

B1: papain: proteolytic enzyme (protein, UniProt P00784 134-345, looked up)
Papain: IPEYVDWRQKGAVTPVKNQGSCGSCWAFSAVVTIEGIIKIRTGNLNEYSEQELLDCDRRSYGCNGGYPWSALQLVAQYGIHYRNTYPYEGVQRYCRSREKGPYAAKTDGVRQVQPYNEGALLYSIANQPVSVVLEAAGKDFQLYRGGIFVGPCGNKVDHAVAAVGYGPNYILIKNSWGTGWGENGYIRIKRGTGNSYGVCGLYTSSFYPVKN
**Q.** Which results are given for B1?
**A.** diffusion results by papain concentration [1]: optimal diffusion results; duration of effectiveness after mixture with water [4]: approximately twenty-four

B2: USP papain: papain of United States Pharmacopeia standard (protein, UniProt P00784 134-345, looked up)
Papain: IPEYVDWRQKGAVTPVKNQGSCGSCWAFSAVVTIEGIIKIRTGNLNEYSEQELLDCDRRSYGCNGGYPWSALQLVAQYGIHYRNTYPYEGVQRYCRSREKGPYAAKTDGVRQVQPYNEGALLYSIANQPVSVVLEAAGKDFQLYRGGIFVGPCGNKVDHAVAAVGYGPNYILIKNSWGTGWGENGYIRIKRGTGNSYGVCGLYTSSFYPVKN
modifications: USP standard
**Q.** Which papain activity ([5]; USP papain) does the source give for B2 here?
**A.** at least 6,000 USP units per mg

B3: ICN papain 2× crystallized powder: ICN Company papain, 2× crystallized powder (protein, UniProt P00784 134-345, looked up)
Papain: IPEYVDWRQKGAVTPVKNQGSCGSCWAFSAVVTIEGIIKIRTGNLNEYSEQELLDCDRRSYGCNGGYPWSALQLVAQYGIHYRNTYPYEGVQRYCRSREKGPYAAKTDGVRQVQPYNEGALLYSIANQPVSVVLEAAGKDFQLYRGGIFVGPCGNKVDHAVAAVGYGPNYILIKNSWGTGWGENGYIRIKRGTGNSYGVCGLYTSSFYPVKN
modifications: crystallized powder
notes: ICN Company papain, 2× crystallized powder
**Q.** For B3, which papain activity ([6]; ICN papain forms) is on record?
**A.** 10-20 BAEE Units of activity

B4: Sigma papain, product no. P4762: Sigma Co., product no. P4762, 2× crystallized, lyophilized powder (protein, UniProt P00784 134-345, looked up)
Papain: IPEYVDWRQKGAVTPVKNQGSCGSCWAFSAVVTIEGIIKIRTGNLNEYSEQELLDCDRRSYGCNGGYPWSALQLVAQYGIHYRNTYPYEGVQRYCRSREKGPYAAKTDGVRQVQPYNEGALLYSIANQPVSVVLEAAGKDFQLYRGGIFVGPCGNKVDHAVAAVGYGPNYILIKNSWGTGWGENGYIRIKRGTGNSYGVCGLYTSSFYPVKN
modifications: lyophilized powder
notes: Sigma Co., product no; P4762, 2× crystallized, lyophilized powder
**Q.** For B4, which papain activity ([6]; Sigma product no. P4762, 2× crystallized, lyophilized powder) is on record?
**A.** 16-20 BAEE units/mg

B5: Sigma papain: papain product of Sigma, approximately eighty percent protein (protein, UniProt P00784 134-345, looked up)
Papain: IPEYVDWRQKGAVTPVKNQGSCGSCWAFSAVVTIEGIIKIRTGNLNEYSEQELLDCDRRSYGCNGGYPWSALQLVAQYGIHYRNTYPYEGVQRYCRSREKGPYAAKTDGVRQVQPYNEGALLYSIANQPVSVVLEAAGKDFQLYRGGIFVGPCGNKVDHAVAAVGYGPNYILIKNSWGTGWGENGYIRIKRGTGNSYGVCGLYTSSFYPVKN
modifications: commercial preparation
notes: papain product of Sigma, approximately eighty percent protein
**Q.** With B5 as the molecule, how does the papain activity ([6]; 25° C., pH 6.2, Sigma papain product) read?
**A.** 10-20 BAEE Units per milligram of enzyme-containing material

B6: Marcor papain: Marcor Company (Hackensack, N.J.) papain (protein, UniProt P00784 134-345, looked up)
Papain: IPEYVDWRQKGAVTPVKNQGSCGSCWAFSAVVTIEGIIKIRTGNLNEYSEQELLDCDRRSYGCNGGYPWSALQLVAQYGIHYRNTYPYEGVQRYCRSREKGPYAAKTDGVRQVQPYNEGALLYSIANQPVSVVLEAAGKDFQLYRGGIFVGPCGNKVDHAVAAVGYGPNYILIKNSWGTGWGENGYIRIKRGTGNSYGVCGLYTSSFYPVKN
modifications: commercial Marcor preparation
**Q.** For B6, which papain activity ([5]; Marcor papain, footnote of EXAMPLE I) is on record?
**A.** 30,000 USP Units/m activity

**Q.** And the papain activity ([5]; Marcor papain)?
**A.** 30,000 USP units/mg

B7: ICN papain 2× crystallized suspension: ICN Company papain, 2× crystallized suspension form (protein, UniProt P00784 134-345, looked up)
Papain: IPEYVDWRQKGAVTPVKNQGSCGSCWAFSAVVTIEGIIKIRTGNLNEYSEQELLDCDRRSYGCNGGYPWSALQLVAQYGIHYRNTYPYEGVQRYCRSREKGPYAAKTDGVRQVQPYNEGALLYSIANQPVSVVLEAAGKDFQLYRGGIFVGPCGNKVDHAVAAVGYGPNYILIKNSWGTGWGENGYIRIKRGTGNSYGVCGLYTSSFYPVKN
modifications: crystallized suspension
notes: ICN Company papain, 2× crystallized suspension form
**Q.** Which papain activity ([6]; ICN papain forms) does the source give for B7 here?
**A.** 15-40 BAEE Units of activity
